Experiments:
[1] = biological target: T1, M1 linked linear ubiquitin (di-Ub) (UniProt P0CG48 1-76; P0CG48 1-76); experiment: SPR; Biacore S200, 25°C; His-tagged UFD-2 or His-tagged Ufd2p immobilised on NTA chips at 20 μg/ml; single-cycle kinetics with M1 diUb at 0, 100, 200, 500, 1,000 and 2,000 nM; 10 mM HEPES, 150 mM NaCl, 0.05% Tween 20, 0.1% BSA, 50 μM EDTA, pH 8.0; conditions: both partners purified
T1 construct: ubiquitin, first (distal) unit of the M1-linked dimer; ubiquitin, second (proximal) unit, joined by its M1 to G76 of the first unit; also called linear di-Ub; M1 diUb conjugates; source: bought: UbiQ (UbiQ-L01)

CHN-1 = CHN-1 (C. elegans); experiment: cell-based or functional assay
Sequence of CHN-1 (C. elegans) (main, as listed by the source): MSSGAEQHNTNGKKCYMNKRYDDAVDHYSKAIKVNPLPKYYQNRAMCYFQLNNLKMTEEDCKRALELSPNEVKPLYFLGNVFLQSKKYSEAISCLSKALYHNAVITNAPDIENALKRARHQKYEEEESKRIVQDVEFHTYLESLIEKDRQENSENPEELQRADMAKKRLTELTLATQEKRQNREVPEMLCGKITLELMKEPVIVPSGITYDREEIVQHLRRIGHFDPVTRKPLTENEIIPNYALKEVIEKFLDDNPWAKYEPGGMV

B1: 6xHis::Ufd2p (enzyme, S. cerevisiae, UniProt P54860 1-961, looked up)
chain: MTAIEDILQITTDPSDTRGYSLLKSEEVPQGSTLGVDFIDTLLLYQLTENEKLDKPFEYLNDCFRRNQQQKRITKNKPNAESLHSTFQEIDRLVIGYGVVALQIENFCMNGAFINYITGIVSNVNSYTDFLSQIIQRAILEGTALDLLNAVFPTLLEYCNKHVSHFDLNESVIYNNVLTIFELFVTFKPIAEIFTKIDGFFADYSCKPQDFERKTILGPILSLSPIEAAVAIRNYGDNLLRSKQQTAMIHESLQAEHKVVIDRLFFIVDKLVRGSLNSRTDMISYFAHIANKNHLRRADHPPFKELSSNGFMSNITLLLVRFSQPFLDISYKKIDKIDANYFNNPSLFIDLSGETRLNSDFKEADAFYDKNRKTADSKPNFISDCFFLTLTYLHYGLGGTLSFEEKMGSEIKALKEEIEKVKKIAANHDVFARFITAQLSKMEKALKTTESLRFALQGFFAHRSLQLEVFDFICGASTFLIRVVDPEHEFPFKQIKLPLIPDQIGVENVDNADFLRAHAPVPFKYYPEFVVEGPVNYSLYISKYQTSPIFRNPRLGSFVEFTTMVLRCPELVSNPHLKGKLVQLLSVGAMPLTDNSPGFMMDIFEHDELVNKNLLYALLDFYVIVEKTGSSSQFYDKFNSRYSISIILEELYYKIPSYKNQLIWQSQNNADFFVRFVARMLNDLTFLLDEGLSNLAEVHNIQNELDNRARGAPPTREEEDKELQTRLASASRQAKSSCGLADKSMKLFEIYSKDIPAAFVTPEIVYRLASMLNYNLESLVGPKCGELKVKDPQSYSFNPKDLLKALTTVYINLSEQSEFISAVAKDERSFNRNLFVRAVDILGRKTGLASPEFIEKLLNFANKAEEQRKADEEEDLEYGDVPDEFLDPLMYTIMKDPVILPASKMNIDRSTIKAHLLSDSTDPFNRMPLKLEDVTPNEELRQKILCFKKQKKEEAKHKASE
notes: Ufd2p, S. cerevisiae; from pET28a-6xHis::Ufd2p; The plasmid is from Liu et al (2017); also called S. cerevisiae Ufd2p; His-tagged Ufd2p; source: bacterial expression system, purified; not shown: 6xHis, N-terminal, kept
binding result [1]: binds

B2: 6xHis::UFD-2^P951A (enzyme, C. elegans, UniProt Q09349 1-984, looked up)
chain: MIEDEKAGLQPMDISDASVFFFQADVESKDFLTSLFDCEGKSDDRMLRYADAIIDVQNLNFDVSPQCLQSNIAEIITKFVLLSQDGSRRGLSRSFNFIDPDIIAGCREEDAIEFLLINFVRCHHELGKSGTSNCYKKTLESTRKAVFSVFVMIQRGYLESQLRSQHASLVFTKRLLEDTVSNVFLRTLVEYLASTDECDEDAITETFNPIFGILRSGIICQRFEDNKDEIVRQILRVMNLLLSIRLPSNGPRPLSNLLVNREDFLPTPSEKIQGREFGLMSFLGPFFSYGLESSARRPNHRVFVDCEEDARKYDGSVNTEQKLYFQRMDPIRTMLHQLMLPLASDQGSRNKTLRWIATIISTNDIRTRSHYDPSDVLCDHYMTNFLSVMYMFSEKIDLSKIIVDYPFLPSSLINISKETRLKMDESGAVAFASQFADRPDEYHFSTVCFFLTIAAQRLVIPPLMNQISEYSRHLKELKHKINALKEKLNTVSGFERAEVEKKLNYETEHWKLMSRHLLCVKTQAQDPALMASSMDFVDKQMKFILNLLCDNLDLLGDDSQLPTEVSQMFCALPEYFLEDALDFYIFAISNGMKLLMERNADWISRLTVLFTQYHYIKSPFLVSKLVRVLSSIQPPLWFNVVRLRMAQENLLMCMIKFYSDFEDNGDFYEKFNVRGNIQYMLEKMEEDMFYKGKFMDMARECGAEFIRFVNMVINDATWCIDESLSGLKSIHDVEKKMANKVEWDNTDQEIRNQDLGVYEEAKRKVKGWLGTAKSNLKLLLSITVNSPEPFRTPVLGERLAAMLNHNLSQLIGSKASELKVKDPRSYGWEPREFVSLLISIYLKLNMPAFVKYIAYDERTYSPEFFHNAIECMRKNSIVGFSQLESFEHLAEDVKKEYEAKAELEEEYDDVPEEFKDPIMDAIMVDPVKLPSGHVMDRAVIERHLLSTPNNAFNRAPLSHNELSPDSELKAKIQEWICQKRNSKK
discharge of Ub-charged UBE2D1 by CHN-1, alone or mixed with UFD-2^P951A (CHN-1): ≥ 2 fold

Source: publication PMC9340540, “A heterotypic assembly mechanism regulates CHIP E3 ligase activity” (The EMBO Journal, 2022)
